{"source": "patent US20220062372A1", "about": "“METHODS FOR TREATING DISEASE AND REDUCING DRUG-INDUCED LIVER INJURY IN PATIENT POPULATIONS” (Ten Peaks LLC, priority 2020, published 2022)", "origin": "cited, not measured here", "molecules": {"B1": {"name": "KEVZARA: IL-6 receptor antagonist (antibody, chains of the INN, looked up, V domains shown)", "VH": "EVQLVESGGGLVQPGRSLRLSCAASRFTFDDYAMHWVRQAPGKGLEWVSGISWNSGRIGYADSVKGRFTISRDNAENSLFLQMNGLRAEDTALYYCAKGRDSFDIWGQGTMVTVSS", "VL": "DIQMTQSPSSVSASVGDRVTITCRASQGISSWLAWYQQKPGKAPKLLIYGASSLESGVPSRFSGSGSGTDFTLTISSLQPEDFASYYCQQANSFPYTFGQGTKLEIK"}}, "details": "background description of the marketed drug"}
{"molecule": "B1", "values": [{"measurement": "hepatic adverse reactions reported in patients", "value": "associated with a higher incidence of transaminase elevations"}]}
